Values quoted from earlier work as cited in paper PMC12489035.

Target: APP tail cytoplasmic tail (Homo sapiens) (UniProt P05067)
Sequence (P05067 724-770): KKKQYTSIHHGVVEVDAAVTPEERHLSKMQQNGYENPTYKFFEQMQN

Chain of AP-4 mu4 subunit (O00189 whole entry): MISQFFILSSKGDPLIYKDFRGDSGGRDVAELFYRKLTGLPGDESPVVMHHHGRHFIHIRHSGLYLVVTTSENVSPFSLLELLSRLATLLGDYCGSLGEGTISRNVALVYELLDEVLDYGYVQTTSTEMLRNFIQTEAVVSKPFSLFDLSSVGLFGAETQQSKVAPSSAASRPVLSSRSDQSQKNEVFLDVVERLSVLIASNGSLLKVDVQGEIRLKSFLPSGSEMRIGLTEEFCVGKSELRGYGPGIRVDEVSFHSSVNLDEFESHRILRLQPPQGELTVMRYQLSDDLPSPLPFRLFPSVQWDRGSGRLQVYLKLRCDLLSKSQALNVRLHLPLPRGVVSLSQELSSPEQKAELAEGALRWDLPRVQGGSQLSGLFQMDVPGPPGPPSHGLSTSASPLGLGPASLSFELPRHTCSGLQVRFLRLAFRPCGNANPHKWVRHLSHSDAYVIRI

Substance: AP-4 mu4 subunit (from UniProt O00189)
- Kd: 27.7 µM
